Laboratory results from patent US20240238439A1 (HUMMINGBIRD BIOSCIENCE PTE, published 2024).

Tests used:
Assay in all cases: SPR (Biacore T200), His-captured receptor on CM5 chip, ADC as analyte
[1] = biological target: T1, His-tagged recombinant human FcγRIA (human, UniProt P12314 16-288, limits assumed)
T1 construct: Captured on a CM5 chip by the Biacore HIS capture kit; also called human FCγRIA (CD64); not shown: His tag
Experimental: (§1) ADCs described in Example 2 were analysed for their ability to bind to human Fcγ receptors by surface plasmon resonance using Biacore.
(§2) Briefly, a Biacore HIS capture kit (Cytivia, Cat. #28995056) was employed to immobilize His-tagged recombinant human Fcγ receptor ligand (FcγRIA, FcγRIIA or FcγRIIIA) onto the surface of a CM5 sensor chip. […] Data capture and analysis were preformed using Biacore T200 according to manufacturer's recommendations for analyzing high-affinity antigen-antibody kinetics. Responses from all steps were reference cell-subtracted, and zero concentration-corrected to normalize for systematic disturbances. The resulting association and dissociation curves were fitted with 1:1 global fitting to obtain values for association rate (ka), dissociation rate (kd), and the equilibrium dissociation constant (KD).

[2] = biological target: T2, His-tagged recombinant human FcγRIIA (human, UniProt P12318 34-217, limits assumed)
T2 construct: Captured on a CM5 chip by the Biacore HIS capture kit; also called human FCγRIIA (CD32a); not shown: His tag
T2 sequence (looked up): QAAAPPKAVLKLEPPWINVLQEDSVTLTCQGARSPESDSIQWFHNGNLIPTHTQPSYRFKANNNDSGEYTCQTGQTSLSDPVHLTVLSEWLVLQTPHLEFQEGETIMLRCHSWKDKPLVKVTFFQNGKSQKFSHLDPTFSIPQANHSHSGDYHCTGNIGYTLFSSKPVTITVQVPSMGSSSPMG
Experimental: as §1, §2

[3] = biological target: T3, His-tagged recombinant human FcγRIIIA (human, UniProt P08637 17-208)
T3 construct: Captured on a CM5 chip by the Biacore HIS capture kit; also called human FCγRIIIA (CD16a); not shown: His tag
T3 sequence (P08637 17-208 limits assumed): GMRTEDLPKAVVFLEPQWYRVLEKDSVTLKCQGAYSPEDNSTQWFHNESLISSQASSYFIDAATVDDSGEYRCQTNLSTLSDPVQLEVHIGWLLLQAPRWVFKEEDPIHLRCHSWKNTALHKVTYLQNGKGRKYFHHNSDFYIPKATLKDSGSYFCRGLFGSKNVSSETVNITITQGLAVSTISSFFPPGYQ
Experimental: as §1, §2

Measured: binding result

T1 sequence (P12314 16-288 limits assumed): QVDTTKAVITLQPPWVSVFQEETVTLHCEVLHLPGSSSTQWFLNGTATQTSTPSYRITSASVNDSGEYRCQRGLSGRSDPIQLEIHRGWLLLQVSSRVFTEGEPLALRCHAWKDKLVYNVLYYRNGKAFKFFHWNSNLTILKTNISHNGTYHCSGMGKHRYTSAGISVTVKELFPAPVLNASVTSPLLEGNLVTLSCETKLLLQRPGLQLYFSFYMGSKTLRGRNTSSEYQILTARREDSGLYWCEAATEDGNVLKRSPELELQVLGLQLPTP

B1: 501c.S8D4 (antibody, human IgG1, kappa, L234A L235A)
heavy: not shown
light: DIQMTQSPSSVSASVGDRVTITCKASQIVGSNVAWYQQKPGKAPEPLIYSASYLYSGVPSRFSGSGSGTDFTLTISSLQPEDFATYYCQQYSSHPLTFGQGTKLEIKRTVAAPSVFIFPPSDEQLKSGTASVVCLLNNFYPREAKVQWKVDNALQSGNSQESVTEQDSKDSTYSLSSTLTLSKADYEKHKVYACEVTHQGLSSPVTKSFNRGEC
modifications: SYNtecan E (HydraSpace-PEG2-HydraSpace-Val-Ala-PABC linker, exatecan payload) conjugated at the 6-azido-GalNAc residue of the N-glycan of N297 (EU numbering); drug-to-antibody ratio 4
no binding: all assays above

B2: 501b.S8D4 (antibody, human IgG1, kappa, L234A L235A)
heavy: QVQLQESGPGLVKPSQTLSLTCTVSGYSITSGYSWHWIRQHPGKGLEWIGSIRYSGGTDYNPSLKSLVTISADTSKNQFSLKLSSVTAADTAVYYCARMTTAPWYPFDYWGQGTTVTVSSASTKGPSVFPLAPSSKSTSGGTAALGCLVKDYFPEPVTVSWNSGALTSGVHTFPAVLQSSGLYSLSSVVTVPSSSLGTQTYICNVNHKPSNTKVDKKVEPKSCDKTHTCPPCPAPEAAGGPSVFLFPPKPKDTLYITREPEVTCVVVDVSHEDPEVKFNWYVDGVEVHNAKTKPREEQYNSTYRVVSVLTVLHQDWLNGKEYKCKVSNKALPAPIEKTISKAKGQPREPQVYTLPPSRDELTKNQVSLTCLVKGFYPSDIAVEWESNGQPENNYKTTPPVLDSDGSFFLYSKLTVDKSRWQQGNVFSCSVMHEALHNHYTQKSLSLSPGK
light: DIQMTQSPSSVSASVGDRVTITCKASQIVGSNVAWYQQKPGKAPEPLIYSASYLYSGVPSRFSGSGSGTDFTLTISSLQPEDFATYYCQQYSSHPLTFGQGTKLEIKRTVAAPSVFIFPPSDEQLKSGTASVVCLLNNFYPREAKVQWKVDNALQSGNSQESVTEQDSKDSTYSLSSTLTLSKADYEKHKVYACEVTHQGLSSPVTKSFNRGEC
modifications: SYNtecan E (HydraSpace-PEG2-HydraSpace-Val-Ala-PABC linker, exatecan payload) conjugated at the 6-azido-GalNAc residue of the N-glycan of N297 (EU numbering); drug-to-antibody ratio 4
no binding: all assays above
